One block for each binder: values may come before it. Square brackets hold non-standard residues; d marks the D form. Ends that are not written are not given here.
Target: Human recombinant melanocortin MC1 receptor (human) (UniProt Q01726)
Assay: radioligand competition, displacement of [125I]NDP-alpha-MSH from human MC1R (CHO-K1), Example 7

Human recombinant melanocortin MC1 receptor (human), sequence (Q01726 whole entry): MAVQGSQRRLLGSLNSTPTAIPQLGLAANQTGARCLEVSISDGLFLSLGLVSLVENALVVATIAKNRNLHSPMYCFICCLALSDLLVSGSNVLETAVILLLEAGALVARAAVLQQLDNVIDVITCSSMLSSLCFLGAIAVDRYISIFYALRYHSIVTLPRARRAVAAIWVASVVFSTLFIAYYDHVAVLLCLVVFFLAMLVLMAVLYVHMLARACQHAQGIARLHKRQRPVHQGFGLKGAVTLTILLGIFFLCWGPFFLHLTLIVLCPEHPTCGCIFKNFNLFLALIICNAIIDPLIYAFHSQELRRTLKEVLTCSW

IC50: > 500 nM
B1: SEQ ID NO: 40 (peptide)
peptide: A[dL][dF]R[dW]FKPV-NH2
modifications: N-terminus assumed
SMILES: CC(C)C[C@@H](NC(=O)[C@H](C)N)C(=O)N[C@H](Cc1ccccc1)C(=O)N[C@@H](CCCNC(=N)N)C(=O)N[C@H](Cc1c[nH]c2ccccc12)C(=O)N[C@@H](Cc1ccccc1)C(=O)N[C@@H](CCCCN)C(=O)N1CCC[C@H]1C(=O)N[C@H](C(N)=O)C(C)C

IC50: > 500 nM
B2: SEQ ID NO: 35 (peptide)
peptide: MV[dF][dR][dW]FKPV-NH2
modifications: N-terminus assumed
SMILES: CSCC[C@H](N)C(=O)N[C@H](C(=O)N[C@H](Cc1ccccc1)C(=O)N[C@H](CCCNC(=N)N)C(=O)N[C@H](Cc1c[nH]c2ccccc12)C(=O)N[C@@H](Cc1ccccc1)C(=O)N[C@@H](CCCCN)C(=O)N1CCC[C@H]1C(=O)N[C@H](C(N)=O)C(C)C)C(C)C

Source: US20250026787A1, “PEPTIDES AND METHODS FOR REDUCING SKIN PIGMENTATION” (Glo Pharma, Inc., priority 2021, published 2025)
